Results from IntAct's records for PubMed 21556048.

Target: ep300_human EP300 (UniProt Q09472)
Sequence (Q09472 whole entry): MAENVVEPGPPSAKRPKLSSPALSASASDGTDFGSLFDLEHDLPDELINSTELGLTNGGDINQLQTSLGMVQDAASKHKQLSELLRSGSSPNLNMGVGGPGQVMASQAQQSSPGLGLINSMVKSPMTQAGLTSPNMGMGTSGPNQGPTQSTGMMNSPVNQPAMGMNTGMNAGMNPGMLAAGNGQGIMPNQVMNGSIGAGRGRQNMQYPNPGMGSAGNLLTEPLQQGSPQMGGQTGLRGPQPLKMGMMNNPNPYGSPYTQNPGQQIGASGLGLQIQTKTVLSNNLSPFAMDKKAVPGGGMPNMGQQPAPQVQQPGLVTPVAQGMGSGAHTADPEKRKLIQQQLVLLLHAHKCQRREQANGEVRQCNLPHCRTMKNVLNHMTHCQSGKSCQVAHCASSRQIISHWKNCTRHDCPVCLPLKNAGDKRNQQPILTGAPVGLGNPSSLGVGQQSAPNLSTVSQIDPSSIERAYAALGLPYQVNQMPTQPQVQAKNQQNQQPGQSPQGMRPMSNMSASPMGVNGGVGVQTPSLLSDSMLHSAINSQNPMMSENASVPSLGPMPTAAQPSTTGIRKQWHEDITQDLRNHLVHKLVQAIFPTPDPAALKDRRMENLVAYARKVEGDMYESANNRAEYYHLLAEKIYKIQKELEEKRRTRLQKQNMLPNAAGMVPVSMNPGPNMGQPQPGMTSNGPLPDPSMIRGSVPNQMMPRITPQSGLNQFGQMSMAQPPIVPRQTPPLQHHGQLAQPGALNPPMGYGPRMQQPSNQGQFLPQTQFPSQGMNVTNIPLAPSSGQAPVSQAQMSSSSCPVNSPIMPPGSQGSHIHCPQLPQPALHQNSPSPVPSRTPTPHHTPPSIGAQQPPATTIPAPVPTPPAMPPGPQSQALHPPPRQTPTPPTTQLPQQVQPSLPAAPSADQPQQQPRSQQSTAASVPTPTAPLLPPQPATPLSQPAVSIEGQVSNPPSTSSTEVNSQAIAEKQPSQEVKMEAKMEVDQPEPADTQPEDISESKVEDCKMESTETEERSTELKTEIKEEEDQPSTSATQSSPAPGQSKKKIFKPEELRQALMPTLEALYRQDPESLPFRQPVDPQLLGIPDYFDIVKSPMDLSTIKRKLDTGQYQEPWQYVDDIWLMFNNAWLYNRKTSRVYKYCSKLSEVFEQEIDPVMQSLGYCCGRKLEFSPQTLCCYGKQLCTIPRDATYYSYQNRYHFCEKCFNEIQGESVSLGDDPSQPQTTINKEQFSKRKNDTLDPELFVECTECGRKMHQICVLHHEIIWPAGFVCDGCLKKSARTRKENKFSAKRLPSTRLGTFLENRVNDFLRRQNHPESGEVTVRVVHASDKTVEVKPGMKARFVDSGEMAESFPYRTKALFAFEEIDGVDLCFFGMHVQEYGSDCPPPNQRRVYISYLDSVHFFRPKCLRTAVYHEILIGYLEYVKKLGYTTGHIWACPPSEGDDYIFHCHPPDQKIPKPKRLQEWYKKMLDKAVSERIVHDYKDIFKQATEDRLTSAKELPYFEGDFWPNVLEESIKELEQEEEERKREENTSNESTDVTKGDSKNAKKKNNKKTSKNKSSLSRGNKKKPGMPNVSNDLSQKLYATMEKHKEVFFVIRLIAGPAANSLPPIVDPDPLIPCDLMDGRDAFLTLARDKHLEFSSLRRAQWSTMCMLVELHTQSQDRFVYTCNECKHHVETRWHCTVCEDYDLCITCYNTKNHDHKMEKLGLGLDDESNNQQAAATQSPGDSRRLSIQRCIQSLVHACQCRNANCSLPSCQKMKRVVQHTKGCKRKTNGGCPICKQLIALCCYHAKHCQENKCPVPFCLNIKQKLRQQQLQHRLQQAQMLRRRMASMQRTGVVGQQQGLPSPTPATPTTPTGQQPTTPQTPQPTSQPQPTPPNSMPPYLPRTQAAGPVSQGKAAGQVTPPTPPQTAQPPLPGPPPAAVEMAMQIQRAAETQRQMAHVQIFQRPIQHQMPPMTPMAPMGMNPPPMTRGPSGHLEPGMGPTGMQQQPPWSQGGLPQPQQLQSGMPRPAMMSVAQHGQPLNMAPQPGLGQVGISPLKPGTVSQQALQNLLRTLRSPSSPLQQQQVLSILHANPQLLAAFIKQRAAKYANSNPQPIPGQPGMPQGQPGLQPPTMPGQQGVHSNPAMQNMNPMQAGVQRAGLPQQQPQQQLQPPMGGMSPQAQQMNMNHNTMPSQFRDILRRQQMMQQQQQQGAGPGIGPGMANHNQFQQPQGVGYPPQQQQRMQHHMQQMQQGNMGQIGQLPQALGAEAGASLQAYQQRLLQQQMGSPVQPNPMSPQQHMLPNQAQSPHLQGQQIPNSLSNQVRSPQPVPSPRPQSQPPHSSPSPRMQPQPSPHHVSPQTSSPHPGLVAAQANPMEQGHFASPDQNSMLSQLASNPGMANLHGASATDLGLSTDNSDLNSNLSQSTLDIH

Myocyte-specific enhancer factor 2C (Homo sapiens), Q06413 T80A, sequence (Q06413 whole entry T80A): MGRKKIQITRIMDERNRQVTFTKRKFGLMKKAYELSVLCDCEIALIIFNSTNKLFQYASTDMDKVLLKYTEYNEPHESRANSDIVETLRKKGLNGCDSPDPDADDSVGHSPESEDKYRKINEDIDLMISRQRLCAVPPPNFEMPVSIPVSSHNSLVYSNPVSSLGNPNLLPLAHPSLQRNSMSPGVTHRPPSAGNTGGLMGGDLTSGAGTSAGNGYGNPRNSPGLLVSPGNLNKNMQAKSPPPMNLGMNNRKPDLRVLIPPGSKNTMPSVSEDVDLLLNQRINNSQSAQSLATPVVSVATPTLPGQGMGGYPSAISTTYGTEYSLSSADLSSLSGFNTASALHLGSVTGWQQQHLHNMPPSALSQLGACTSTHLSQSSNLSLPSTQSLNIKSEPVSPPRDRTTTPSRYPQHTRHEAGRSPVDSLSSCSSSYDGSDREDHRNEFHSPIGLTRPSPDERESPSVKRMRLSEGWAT

- effect of a mutation on the interaction: decreasing interaction
Substance: Myocyte-specific enhancer factor 2C (Homo sapiens), Q06413 T80A
